Assay results from publication PMC11321632 (2024).

Target: Lysosomal Ras-associated protein 7a (RAB7A), recombinant mouse protein (mouse, UniProt P51150 1-207)
Experiment: SPR

Chain of Lysosomal Ras-associated protein 7a (RAB7A), recombinant mouse protein (P51150 whole entry): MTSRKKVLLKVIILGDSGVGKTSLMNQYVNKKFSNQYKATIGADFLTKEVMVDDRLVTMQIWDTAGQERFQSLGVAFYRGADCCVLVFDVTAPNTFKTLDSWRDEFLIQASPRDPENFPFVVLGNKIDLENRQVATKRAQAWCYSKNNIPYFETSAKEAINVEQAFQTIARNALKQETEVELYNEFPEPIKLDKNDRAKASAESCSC

- Kd: 31.8 nM
B1: Sirtuin 5 (SIRT5), recombinant mouse protein (enzyme)
chain: SSNMADFRKCFANAKHIAIISGAGVSAESGVPTFRGAGGYWRKWQAQDLATPQAFARNPSQVWEFYHYRREVMRSKEPNPGHLAIAQCEARLRDQGRRVVVITQNIDELHRKAGTKNLLEIHGTLFKTRCTSCGTVAENYRSPICPALAGKGAPEPETQDARIPVDKLPRCEEAGCGGLLRPHVVWFGENLDPAILEEVDRELALCDLCLVVGTSSVVYPAAMFAPQVASRGVPVAEFNMETTPATDRFRFHFPGPCGKTLPEALAPHETERTS
